Each block holds one binder with its values, some of them ahead of it.
Experiments:
[1] = target: T1, human PD-1, full length, on cells (human, UniProt Q15116 25-288); assay: cell-based or functional assay
[2] = target: T2, cyno PD-1, full length, on CHO-K1 cells (cyno monkey, UniProt B0LAJ3 25-288); assay: flow cytometry on CHO-K1-cPD-1 cells
T2 construct: also called CHO-K1-cPD-1; cPD-1
Text: CHO-K1 cells were stably transfected with pIRES plasmid containing the nucleic acid sequence encoding full length human PD-1 (see Example 2, step 2) to generate CHO-K1 cells stably expressing human PD-1 (herein referred to as CHO-K1-hPD-1 cells). Other CHO-K1 were stably transfected with pIRES plasmid containing the nucleic acid sequence encoding full length cyno PD-1 to generate CHO-K1 cells stably expressing cyno PD-1 (herein referred to as CHO-K1-cPD-1 cells). CHO-K1-hPD-1 and CHO-K1-cPD-1 cells were cultured and expanded in T-75 culture flasks to 90% confluence. The culture media was aspirated, and the cells were washed twice with HBSS (Hanks Balanced Salt Solution, Invitrogen). The cells were treated with enzyme-free cell dissociation solution (Versene solution, Invitrogen) and collected. The cells were then washed twice with HBSS, cell counts were determined, and cells were resuspended with HBSS at 2×10⁶ cells/mL. Goat serum was added to the cell suspension to a final concentration of 1%, and the cells were blocked for 30 minutes on ice and then washed twice with HBSS. The cells were collected after centrifugation and resuspended in FACS buffer (HBSS+1% BSA, v/v) at 2×10⁶ cells/mL. 100 uL of the cell suspension were then added to each well of 96-well plate. 100 uL of purified anti-PD-1 antibodies from Example 2 were added to each well of the 96-well plate and incubated for 2 hours on ice. […] The samples were washed three times with FACS buffer, and 100 uL fixation buffer (4% paraformaldehyde v/v) were added to each well and incubated for 10 minutes. The cells were then washed twice with FACS buffer and resuspended in 100 uL FACS buffer. The mean fluorescence intensity (MFI) was determined using FACS Calibur (BD), and the results are shown in FIGS. 7-8 and in Tables 10-11.

[3] = target: T1, human PD-1, full length, on cells; assay: cell-based or functional assay; remark: listed apart in the source
[4] = target: T1, human PD-1, full length, on cells; assay: cell-based or functional assay; remark: listed apart in the source
[5] = target: T1, human PD-1, full length, on cells; assay: cell-based or functional assay; remark: listed apart in the source

T1 sequence (Q15116 25-288): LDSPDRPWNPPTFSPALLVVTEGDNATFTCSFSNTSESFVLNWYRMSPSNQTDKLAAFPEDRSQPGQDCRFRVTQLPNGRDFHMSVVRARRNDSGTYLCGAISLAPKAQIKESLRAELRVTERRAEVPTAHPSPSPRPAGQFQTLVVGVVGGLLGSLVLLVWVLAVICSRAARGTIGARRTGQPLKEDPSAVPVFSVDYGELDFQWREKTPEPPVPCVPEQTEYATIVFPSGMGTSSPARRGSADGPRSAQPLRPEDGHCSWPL
T2 sequence (B0LAJ3 entry or part of it limits assumed): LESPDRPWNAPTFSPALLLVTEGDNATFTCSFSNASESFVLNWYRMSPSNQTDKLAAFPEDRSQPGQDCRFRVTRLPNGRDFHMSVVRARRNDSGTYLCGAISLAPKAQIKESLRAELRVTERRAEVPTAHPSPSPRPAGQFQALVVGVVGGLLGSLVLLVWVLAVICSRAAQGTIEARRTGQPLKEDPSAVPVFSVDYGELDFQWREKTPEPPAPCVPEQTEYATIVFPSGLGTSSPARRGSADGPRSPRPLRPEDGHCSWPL

- IL-2 release, mixed lymphocyte reaction (PBMC donor-1), antibody 0.001 µg/mL [1]: 33.1 pg/mL
- IL-2 release, mixed lymphocyte reaction (PBMC donor-1), antibody 0.01 µg/mL [1]: 48.9 pg/mL
- IL-2 release, mixed lymphocyte reaction (PBMC donor-1), antibody 0.1 µg/mL [1]: 106 pg/mL
- IL-2 release, mixed lymphocyte reaction (PBMC donor-1), antibody 1 µg/mL [1]: 65.6 pg/mL
- MFI at 0.1 nM [2]: 23.4 MFI
- MFI at 1 nM [2]: 156 MFI
- MFI at 10 nM [2]: 773 MFI
- MFI at 100 nM [2]: 944 MFI
- IL-2 release, mixed lymphocyte reaction (PBMC donor-2), antibody 0.001 µg/mL [3]: 30 pg/mL
- IL-2 release, mixed lymphocyte reaction (PBMC donor-2), antibody 0.01 µg/mL [3]: 43.4 pg/mL
- IL-2 release, mixed lymphocyte reaction (PBMC donor-2), antibody 0.1 µg/mL [3]: 74.2 pg/mL
- IL-2 release, mixed lymphocyte reaction (PBMC donor-2), antibody 1 µg/mL [3]: 103 pg/mL
- IFN-γ release, mixed lymphocyte reaction (PBMC donor-1), antibody 0.001 µg/mL [4]: 3010 pg/mL
- IFN-γ release, mixed lymphocyte reaction (PBMC donor-1), antibody 0.01 µg/mL [4]: 5910 pg/mL
- IFN-γ release, mixed lymphocyte reaction (PBMC donor-1), antibody 0.1 µg/mL [4]: 15300 pg/mL
- IFN-γ release, mixed lymphocyte reaction (PBMC donor-1), antibody 1 µg/mL [4]: 15200 pg/mL
- IFN-γ release, mixed lymphocyte reaction (PBMC donor-2), antibody 0.001 µg/mL [5]: 2090 pg/mL
- IFN-γ release, mixed lymphocyte reaction (PBMC donor-2), antibody 0.01 µg/mL [5]: 2720 pg/mL
- IFN-γ release, mixed lymphocyte reaction (PBMC donor-2), antibody 0.1 µg/mL [5]: 2630 pg/mL
- IFN-γ release, mixed lymphocyte reaction (PBMC donor-2), antibody 1 µg/mL [5]: 2830 pg/mL
B1: chimeric anti-PD-1 antibody 21G8F11 (antibody, V domains shown)
VH: EVQLLESGGGLAQPGGSLRLSCAASGFSFNTYLMHWVRQAPGKGLEWVSAISGGGGNTYYADSVKGRFTISRDNSKNTLYLQMNSLRAEDTAVYYCAKENRIPVAPFDYWGQGTLVTVSS
VL: DIQMTQSPSTLSASVGDRVTITCRASQSISTWLAWYQQKPGKAPKLLIYKASSLESGVPSRFSGSGSGTEFTLTISSLQPDDLATYYCQQYNSFSWTFGQGTKVEIK

- MFI at 0.1 nM [2]: 50.6 MFI
- MFI at 1 nM [2]: 475 MFI
- MFI at 10 nM [2]: 2120 MFI
- MFI at 100 nM [2]: 2340 MFI
B2: chimeric anti-PD-1 antibody 223G6B5 (antibody, V domains shown)
VH: QVQLQESGPGLVKPSETLSLTCAVSGHSIRGSYFWGWIRQPPGRGLEWIGSIYHSGSTYTNPSLKSRATISVDTSKNQFSLKLNSVTAADTAVYYCARDLDIATTRDYWGQGTLVTVSS
VL: DIQLTQSPSFLSASVGDRVTIICRASQGINNYLAWYQQKPGKAPKLLIYAASTLQSGVPSRFSGSGSGTEFTLTISSLQPEDFATYYCQQLDSYPRTFGQGTKVEIKR

- MFI at 0.0316 nM [2]: 3.3 MFI
- MFI at 0.1 nM [2]: 3.3 MFI
- MFI at 0.316 nM [2]: 3.6 MFI
- MFI at 1 nM [2]: 5.8 MFI
- MFI at 3.16 nM [2]: 28 MFI
- MFI at 10 nM [2]: 221 MFI
- MFI at 31.6 nM [2]: 848 MFI
- MFI at 100 nM [2]: 933 MFI
B3: chimeric anti-PD-1 antibody 226C3A7 (antibody, V domains shown)
VH: QVQLQQSGPGLVNPSQTLSLTCAISGDSVSSNSGAWNWIRQSPSRGLEWLGRTYYRSKWYNDYGISVQSRITINPDTSKNHFSLQLNSVTPEDTAVYYCARDPYYYGSGSYFDYWGQGTLVTVSS
VL: EIVMTQSPATLSVSPGERVTLSCRASLSVNSNLAWYQQKPGQAPRLLIYDTSTRATGVPARFSGSGSGTEFTLTISSLQSEDFAVYYCQQYHYWPLTFGGGTKVEIK

- MFI at 0.0316 nM [2]: 2.9 MFI
- MFI at 0.1 nM [2]: 3.1 MFI
- MFI at 0.316 nM [2]: 3.1 MFI
- MFI at 1 nM [2]: 5.1 MFI
- MFI at 3.16 nM [2]: 23.4 MFI
- MFI at 10 nM [2]: 156 MFI
- MFI at 31.6 nM [2]: 773 MFI
- MFI at 100 nM [2]: 944 MFI
B4: chimeric anti-PD-1 antibody 204C5E12 (antibody, V domains shown)
VH: QVQLVESGGGVVQPGRSLRLSCAASGFSFSYYGMHWVRQAPGKGLEWVAVIWYDGSNKYYADSVKGRFTISRDNSKNTLYLQMNSLRAEDTAVYYCASGITLVRGADYYYNYDMDVWGQGTTVTVSS
VL: not shown
